Positions count from the first letter of the chain named.
B1: GIP130a (other)
chain: MRSRGSDTEGSAQKKFPRHTKGHSFQGPKNMKHRQQDKDSPSESDVILPCPKAEKPHSGNGHQAEDLSRDDLLFLLSILEGELQARDEVIGILKAEKMDLALLEAQYGFVTPKKVLEALQRDAFQAKSTPWQEDIYEKPMNELDKVVEKHKESYRRILGQLLVAEKSRRQTILELEEEKRKHKEYMEKSDEFICLLEQECERLKKLIDQEIKSQEEKEQEKEKRVTTLKEELTKLKSFALMVVDEQQRLTAQLTLQRQKIQELTTNAKETHTKLALAEARVQEEEQKATRLEKELQTQTTKFHQDQDTIMAKLTNEDSQNRQLQQKLAALSRQIDELEETNRSLRKAEEELQDIKEKISKGEYGNAGIMAEVEELRKRVLDMEGKDEELIKMEEQCRDLNKRLERETLQSKDFKLEVEKLSKRIMALEKLEDAFNKSKQECYSLKCNLEKERMTTKQLSQELESLKVRIKELEAIESRLEKTEFTLKEDLTKLKTLTVMFVDERKTMSEKLKKTEDKLQAASSQLQVEQNKVTTVTEKLIEETKRALKSKTDVEEKMYSVTKERDDLKNKLKAEEEKGNDLLSRVNMLKNRLQSLEAIEKDFLKNKLNQDSGKSTTALHQENNKIKELSQEVERLKLKLKDMKAIEDDLMKTEDEYETLERRYANERDKAQFLSKELEHVKMELAKYKLAEKTETSHEQWLFKRLQEEEAKSGHLSREVDALKEKIHEYMATEDLICHLQGDHSVLQKKLNQQENRNRDLGREIENLTKELERYRHFSKSLRPSLNGRRISDPQVFSKEVQTEAVDNEPPDYKSLIPLERAVINGQLYEESENQDEDPNDEGSVLSFKCSQSTPCPVNRKLWIPWMKSKEGHLQNGKMQTKPNANFVQPGDLVLSHTPGQPLHIKVTPDHVQNTATLEITSPTTESPHSYTSTAVIPNCGTPKQRITILQNASITPVKSKTSTEDLMNLEQGMSPITMATFARAQTPESCGSLTPERTMSPIQVLAVTGSASSPEQGRSPEPTEISAKHAIFRVSPDRQSSWQFQRSNSNSSSVITTEDNKIHIHLGSPYMQAVASPVRPASPSAPLQDNRTQGLINGALNKTTNKVTSSITITPTATPLPRQSQITVEPLLLPH
notes: Full length; tested as GAL4 domain fusion in yeast two-hybrid
B2: GIP130b (other)
chain: MRSRGSDTEGSAQKKFPRHTKGHSFQGPKNMKHRQQDKDSPSESDVILPCPKAEKPHSGNGHQAEDLSRDDLLFLLSILEGELQARDEVIGILKAEKMDLALLEAQYGFVTPKKVLEALQRDAFQAKSTPWQEDIYEKPMNELDKVVEKHKESYRRILGQLLVAEKSHRQTILELEEEKRKHKEYMEKSDEFICLLEQECERLKKLIDQEIKSQEEKEQEKEKRVTTLKEELTKLKSFALMVVDEQQRLTAQLTLQRQKIQELTTNAKETHTKLALAEARVQEEEQKATRLEKELQTQTTKFHQDQDTIMAKLTNEDSQNRQLQQKLAALSRQIDELEETNRSLRKAEEELQDIKEKISKGEYGNAGIMAEVEELRKRVLDMEGKDEELIKMEEQCRDLNKRLERETLQSKDFKLEVEKLSKRIMALEKLEDAFNKSKQECYSLKCNLEKERMTTKQLSQELESLKVRIKELEAIESRLEKTEFTLKEDLTKLKTLTVMFVDERKTMSEKLKKTEDKLQAASSQLQVEQNKVTTVTEKLIEETKRALKSKTDVEEKMYSVTKERDDLKNKLKAEEEKGNDLLSRVNMLKNRLQSLEAIEKDFLKNKLNQDSGKSTTALHQENNKIKELSQEVERLKLKLKDMKAIEDDLMKTEDEYETLERRYANERDKAQFLSKELEHVKMELAKYKLAEKTETSHEQWLFKRLQEEEAKSGHLSREVDALKEKIHEYMATEDLICHLQGDHSVLQKKLNQQENRNRDLGREIENLTKELERYRHFSKSLRPSLNGRRISDPQVFSKEVQTEAVDNEPPDYKSLIPLERAVINGQLYEESENQDEDPNDEGSVLSFKCSQSTPCPVNRKLWIPWMKSKEGHLQNGKMQTKPNANFVQPGDLVLSHTPGQPLHIKVTPDHVQNTATLEITSPTTESPHSYTSTAVIPNCGTPKQRITILQNASITPVKSKTSTEDLMNLEQGMSPITMATFARAQTPESCGSLTPERTMSPIQVLAVTGSASSPEQGRSPEPTEISAKHAIFRVSPDRQSSWQFQRSNSNSSSVITTEDNKIHIHLGSPYMQAVASPVRPASPSAPLQDNRTQGLINGALNKTTNKVTSSITITPTATPLPRQSQITVSNIYN
notes: as for B1
B3: GIP130c (other)
chain: B2 chain with H168R
notes: as for B1

Key:
Test in all cases: yeast two-hybrid
yeast two-hybrid = target: the molecule itself
GIP130a = target: B1
GIP130c = target: B3

binding result (GIP130a)	binding result (GIP130c)	Binder	binding result (yeast two-hybrid)
–	–	B1	binds
binds	binds	B2	binds
binds	–	B3	binds

Source: patent US20030108554A1 (published 2003)
